These results are taken from patent publication US20060270596A1 (CENTRE NATIONAL DE LA RECHERCHE SCIENTIFIQUE CNRS, published 2006).

For one experiment, the target named is T1, chemokine CXCL2 (UniProt P19875 1-107, limits assumed).
T1 construct: 35S-labelled in vitro translation product
T1 sequence (looked up): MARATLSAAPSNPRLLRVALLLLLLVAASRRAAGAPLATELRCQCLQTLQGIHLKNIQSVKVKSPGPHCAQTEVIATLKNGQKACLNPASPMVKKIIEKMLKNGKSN
The experiment in a line: GST pull-down, 35S-labelled in vitro translated molecule.

For experiment [1], the target named is T2, human THAP1 (THanatos-Associated-Protein-1), full length (human, UniProt Q9NVV9 1-213).
T2 construct: these tags are not written into the chain; also called hTHAP1; THAP1 wild type
T2 sequence: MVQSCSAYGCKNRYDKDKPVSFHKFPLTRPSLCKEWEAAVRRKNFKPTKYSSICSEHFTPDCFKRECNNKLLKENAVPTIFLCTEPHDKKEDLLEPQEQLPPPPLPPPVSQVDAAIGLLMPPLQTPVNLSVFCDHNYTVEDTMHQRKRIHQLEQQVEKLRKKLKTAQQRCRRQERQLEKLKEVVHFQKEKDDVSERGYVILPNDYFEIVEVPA
Put plainly: yeast two-hybrid, chemokine bait and THAP1 prey.

For experiment [2], the target named is T3, THAP1-C1 deletion mutant (amino acids 90-213) (human, UniProt Q9NVV9 90-213).
T3 construct: Gal4 fusion, in vitro translation product or GFP fusion according to assay; also called THAP1-CL; THAP1ΔTHAP
T3 sequence: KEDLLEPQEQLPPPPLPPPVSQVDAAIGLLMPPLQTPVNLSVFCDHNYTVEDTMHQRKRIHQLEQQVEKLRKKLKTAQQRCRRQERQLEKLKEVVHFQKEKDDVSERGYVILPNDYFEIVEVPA
Put plainly: yeast two-hybrid.

In experiment [3] the target is T4, THAP1-N3 deletion mutant (amino acids 1-192) (human, UniProt Q9NVV9 1-192).
T4 construct: Gal4 fusion, in vitro translation product or GFP fusion according to assay
T4 sequence: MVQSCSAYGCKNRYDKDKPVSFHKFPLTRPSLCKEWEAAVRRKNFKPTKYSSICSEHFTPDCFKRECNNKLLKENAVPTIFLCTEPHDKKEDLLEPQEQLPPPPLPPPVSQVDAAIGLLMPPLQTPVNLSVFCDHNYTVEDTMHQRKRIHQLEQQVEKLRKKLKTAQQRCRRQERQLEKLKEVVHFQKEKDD
The experiment in a line: yeast two-hybrid.

Experiment [4] concerns the target T5, THAP1-N2 deletion mutant (amino acids 1-166) (human, UniProt Q9NVV9 1-166).
T5 construct: Gal4 fusion, in vitro translation product or GFP fusion according to assay
T5 sequence: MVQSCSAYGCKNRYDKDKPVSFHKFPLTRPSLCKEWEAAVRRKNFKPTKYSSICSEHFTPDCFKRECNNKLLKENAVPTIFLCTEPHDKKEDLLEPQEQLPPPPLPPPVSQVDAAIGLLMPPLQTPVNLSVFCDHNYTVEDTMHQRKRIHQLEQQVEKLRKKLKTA
Put plainly: yeast two-hybrid.

Experiment [5] deals with T6, THAP1ΔQRCRR mutant (deletion of residues 168-172) (human, UniProt Q9NVV9 1-213).
T6 sequence: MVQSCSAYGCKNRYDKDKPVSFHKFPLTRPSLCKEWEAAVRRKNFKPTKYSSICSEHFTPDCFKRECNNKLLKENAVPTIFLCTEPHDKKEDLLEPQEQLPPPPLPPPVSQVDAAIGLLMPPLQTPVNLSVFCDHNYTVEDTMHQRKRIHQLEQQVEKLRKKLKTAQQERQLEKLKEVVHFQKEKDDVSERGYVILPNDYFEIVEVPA
Put plainly: yeast two-hybrid, SLC/CCL21 bait.

Experiment [6] addresses T7, GST (glutathione S-transferase) control protein (UniProt P08515 1-218 = GST).
T7 construct: Negative control in GST pull-down assays; also called GST beads; GST alone
Put plainly: GST pull-down, 35S-labelled in vitro translated SLC/CCL21. On the procedure: To confirm the interaction observed in yeast two-hybrid system, we performed in vitro GST pull down assays. THAP1, expressed as a GST-tagged fusion protein and immobilized on glutathione sepharose, was incubated with radiolabeled in vitro translated SLC/CCL21.

T7 sequence (P08515 whole entry): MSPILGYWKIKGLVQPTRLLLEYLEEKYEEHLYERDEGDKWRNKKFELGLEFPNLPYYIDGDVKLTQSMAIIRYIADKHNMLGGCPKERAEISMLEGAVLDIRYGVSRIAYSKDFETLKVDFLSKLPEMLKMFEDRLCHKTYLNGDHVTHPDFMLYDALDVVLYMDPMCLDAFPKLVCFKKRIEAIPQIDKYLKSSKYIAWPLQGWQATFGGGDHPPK

B1: GST-THAP3 181-284 (chemokine-binding domain of THAP3) (other)
chain: LPPNAEGHVKQVSPRRPQATEAVGRPTGPAGLRRTPNKQPSDHSYALLDLDSLKKKLFLTLKENEKLRKRLQAQRLVMRRMSSRLRACKGHQGLQARLGPEQQS
notes: not shown: GST (glutathione S-transferase of pGEX2T) and its linker at the N end
For B1, the binding result in the experiment with chemokine CXCL2 is reported as “no binding”.

B2: human chemokine SLC/CCL21, mature form (amino acids 24-134) (ligand)
chain: SDGGAQDCCLKYSQRKIPAKVVRSYRKQEPSLGCSIPAILFLPRKRSQAELCADPKELWVQQLMQHLDKTPSPQKPAQGCRKDRGASKTGKKGKGSKGCKRTERSQTPKGP
notes: GenBank NP-002980; Used as Gal4 fusion in two-hybrid and as 35S-labelled in vitro translation product in pull-downs; also called SLC/6Ckine; SLC/CCL21 wild type
Regarding B2, the binding result in experiment [1] is recorded as “binds”; in experiment [2] it was “binds”; in experiment [3], “no binding”; in experiment [4], “no binding”; in experiment [5], “no binding”; in experiment [6] it was “no binding”.
